In the supplement of paper PMC7877785:
± gives the uncertainty stated by the source.

Assay: self-splicing fitness, log relative to wild type (ln ratio); higher = more splicing; Tetrahymena group I intron in knt gene, E. coli kanamycin selection, DiMSum; sequences stand for … in CUCUCU…GGAGGGAAAAGUUAUCAGGCAUGCACCUGGUAGCUAGUCUUUAAACCAAUAGAUUGCAUCGGUUUAAAAGGCAAGACCGUCAAAUUGCGGGAAAGGGGUCAACAGCCGUUCAGUACCAAGUCUCAGGGGAAACUUUGAGAUGGCCUUGCAAAGGGUAUGGUAAUAAGCUGACGGACAUGGUCCUAACCACGCAGCCAAGUCCUAAGUCAACAGAUCUUCUGUUGAUAUGGAUGCAGUUCACAGACUAAAUGUCGGUCGGGGAAGAUGUAUUCUUCUCAUAAGAUAUAGUCGGACCUCUCCUUAAUGGGAGCUAGCGGAUGAAGUGAUGCAACACUGGAGCCGCUGGGAACUAAUUUGUAUGCGAAAGUAUAUUGAUUAGUUUUGGAGUACUCGUGGUCG
Outline: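 DiMSum derived fitness as the error-weighted combination of fold changes across replicates, kanamycin versus no kanamycin, normalised to wild type. E. coli BL21(DE3) held the library, which randomised all eight P1ex-region intron nucleotides within the knt kanamycin-resistance gene on pET-22b(+). Six replicate transformations grew overnight at 37°C or 30°C on LB agar with or without 25 μg/mL kanamycin, also containing 100 μg/mL carbenicillin, 50 μM IPTG and 0.2% rhamnose, and pooled colonies were amplicon-sequenced on an Illumina HiSeq 2500.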

Sequence | self-splicing fitness (ln) (30 °C) | self-splicing fitness (ln) (37 °C)
CCUCAGCAAUAUUACGUGAU | -2.84 ± 0.2 | -2.71 ± 0.43
CCUGAGCAAUAUUACGAAGC | -2.38 ± 0.14 | -2.58 ± 0.3
CCUGAGCAAUAUUACGACAU | -3.785 ± 0.027 | -2.87 ± 0.042
CCUGAGCAAUAUUACGACCA | -2.89 ± 0.44 | -2.06 ± 0.38
CCUGAGCAAUAUUACGAGGC | -3.18 ± 0.43 | -1.54 ± 0.26
CCUGAGCAAUAUUACGAUAG | -1.55 ± 0.085 | -0.775 ± 0.089
CCUGAGCAAUAUUACGAUCC | -4.29 ± 0.47 | -2.96 ± 0.48
CCUGAGCAAUAUUACGAUCG | -3.71 ± 0.27 | -3.46 ± 0.3
CCUGAGCAAUAUUACGCAAC | -2.76 ± 0.33 | -1.78 ± 0.27
CCUGAGCAAUAUUACGCAAU | -3.31 ± 0.19 | -2.68 ± 0.24
CCUGAGCAAUAUUACGCACG | -3.16 ± 0.47 | -2.09 ± 0.37
CCUGAGCAAUAUUACGCACU | -4.16 ± 0.3 | -2.8 ± 0.24
CCUGAGCAAUAUUACGCAGU | -2.91 ± 0.2 | -2.84 ± 0.28
CCUGAGCAAUAUUACGCCGU | -3.18 ± 0.45 | -1.61 ± 0.39
CCUGAGCAAUAUUACGCGUA | -3.77 ± 0.34 | -2.33 ± 0.23
CCUGAGCAAUAUUACGCGUC | -2.89 ± 0.27 | -3.02 ± 0.4
CCUGAGCAAUAUUACGCUCC |  | -3.8 ± 0.33
CCUGAGCAAUAUUACGCUUA | -2.31 ± 0.24 | -2.27 ± 0.39
CCUGAGCAAUAUUACGGAGG | -3.56 ± 0.24 | -2.54 ± 0.26
CCUGAGCAAUAUUACGGAUG | -1.52 ± 0.057 | -1.31 ± 0.078
CCUGAGCAAUAUUACGGGUU | -4.27 ± 0.34 | -2.56 ± 0.31
CCUGAGCAAUAUUACGGUCA | -2.92 ± 0.24 | -2.46 ± 0.33

Sequence | self-splicing fitness (ln) (30 °C) | self-splicing fitness (ln) (37 °C)
CCUGAGCAAUAUUACGUAAU | -2.24 ± 0.2 | -2.6 ± 0.25
CCUGAGCAAUAUUACGUAUA | -3.53 ± 0.23 | -2.51 ± 0.24
CCUGAGCAAUAUUACGUGGC | -3.15 ± 0.24 | 
CCUGAGCAAUAUUACGUUUA | -3.15 ± 0.15 | -1.57 ± 0.17
CCUUAGCAAUAUUACGAGGU | -4.03 ± 0.15 | -2.52 ± 0.15
CCUUAGCAAUAUUACGAGUG | -1.07 ± 0.082 | 0.122 ± 0.11
CCUUAGCAAUAUUACGAUAG | -2.77 ± 0.12 | -2.37 ± 0.18
CCUUAGCAAUAUUACGAUCA |  | -2.51 ± 0.38
CCUUAGCAAUAUUACGCCAA | -2.7 ± 0.34 | -0.755 ± 0.31
CCUUAGCAAUAUUACGCCUA | -2.69 ± 0.48 | -1.4 ± 0.35
CCUUAGCAAUAUUACGGCAC | -3.69 ± 0.29 | -2.71 ± 0.44
CCUUAGCAAUAUUACGGCCU |  | -0.938 ± 0.34
CCUUAGCAAUAUUACGGCUA | -2.52 ± 0.45 | -1.75 ± 0.37
CCUUAGCAAUAUUACGGGCU | -4.07 ± 0.28 | -2.87 ± 0.22
CCUUAGCAAUAUUACGGGGU | -4.43 ± 0.28 | -2.08 ± 0.19
CCUUAGCAAUAUUACGUAAC | -4.41 ± 0.22 | -2.41 ± 0.18
CCUUAGCAAUAUUACGUAUC | -4.15 ± 0.27 | -2.17 ± 0.26
CCUUAGCAAUAUUACGUGUG | -1.61 ± 0.063 | -0.595 ± 0.078
CGAAAGCAAUAUUACGACUA | -1.51 ± 0.14 | -0.539 ± 0.13
CGAAAGCAAUAUUACGAGGU |  | -1.64 ± 0.3
CGAAAGCAAUAUUACGAGUU | -3.72 ± 0.44 | -2.21 ± 0.23
CGAAAGCAAUAUUACGCAUC |  | -2.75 ± 0.36
